This experiment concerns the target purified human platelet αIIbβ3 integrin (human, UniProt P05106 27-788). Nature of the experiment: ELISA; competition: αIIbβ3 (1 µg) immobilised on the plate, Fg 1 µM with apoA-IV 0–10 µM; TBS, 0.05% Tween-20, 1 mM each MgCl2, MnCl2, CaCl2; 1 h at 37 °C; anti-fibrinogen IgG and anti-mouse IgG-HRP. The note with it: both partners purified.

B1: recombinant human apoA-IV (ligand, UniProt P06727 21-396, looked up)
chain: EVSADQVATVMWDYFSQLSNNAKEAVEHLQKSELTQQLNALFQDKLGEVNTYAGDLQKKLVPFATELHERLAKDSEKLKEEIGKELEELRARLLPHANEVSQKIGDNLRELQQRLEPYADQLRTQVSTQAEQLRRQLTPYAQRMERVLRENADSLQASLRPHADELKAKIDQNVEELKGRLTPYADEFKVKIDQTVEELRRSLAPYAQDTQEKLNHQLEGLTFQMKKNAEELKARISASAEELRQRLAPLAEDVRGNLRGNTEGLQKSLAELGGHLDQQVEEFRRRVEPYGENFNKALVQQMEQLRQKLGPHAGDVEGHLSFLEKDLRDKVNSFFSTFKEKESQDKTLSLPELEQQQEQQQEQQQEQVQMLAPLES
notes: apolipoprotein A-IV, human; also called rH-ApoA-IV; rH-apoA-IV; source: E. coli, purified (His GraviTrap IMAC, tag cut with TEV protease); not shown: His6, N-terminal, cleaved
In turn, B1 yielded an IC50 of 1320 nM.

The values above are taken from publication PMC6127106, “Apolipoprotein A-IV binds αIIbβ3 integrin and inhibits thrombosis” (Nature Communications, 2018).
